Data as given in patent US20200199244A1 (published 2020).
Where “and” joins values, the source holds several entries; their conditions need not be identical. Equal values may be shown once.

Target: T1, human CD40 (BMS, CY24FEB06-01) (human, UniProt P25942 21-193)
T1 construct: Soluble human CD40 reagent of the ELISA RBA
Test: ELISA RBA, competition with IZ-CD40L for soluble human CD40;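 also: Neutravidin-coated 384-well plates, dAb–human CD40 complex incubated 2 h at room temperature, read-out as absorbance at 450 nm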
Protocol: Clear walled High Bind, 384-well plates (Corning, UK) were coated with 25 μl of 1 μg/ml Neutravidin in 0.2 M carbonate-bicarbonate buffer, pH 9.4 overnight at 4° C. The following day, assay plates were washed with 0.1% (v/v) Tween PBS buffer, blocked with 1% (w/v) BSA in PBS for 1 hour at room temperature and washed again. […] Following washing of the assay plate, the dAb:human CD40 complex was incubated in the assay plate at room temperature for 2 hours with gentle agitation. […] Absorbance signal was measured using a SpectraMax® M5e plate reader (Molecular Devices) at 450 nm following neutralization with 1M HCl solution.

T1 sequence (P25942 21-193 limits assumed): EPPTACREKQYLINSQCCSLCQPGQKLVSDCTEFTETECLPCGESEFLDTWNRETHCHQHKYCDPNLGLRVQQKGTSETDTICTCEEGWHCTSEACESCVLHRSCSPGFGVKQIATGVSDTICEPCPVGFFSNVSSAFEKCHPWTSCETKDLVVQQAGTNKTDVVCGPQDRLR

| Binder | EC50 |
| --- | --- |
| BMS3h-56-246 (other, domain antibody (dAb): single human VH domain) VH: EVQLLESGGGLVQPGGSLRLSCAASGFTFRDYEMWWVRQAPGKGLERVSAINPWGTLTYYADSVKGRFTISRDNSKNTLYLQMNSLRAEDTAVYYCAKLPFTFEDWGQGTLVTVSS | 11.1 nM |
| BMS3h-56-205 (other, domain antibody (dAb): single human VH domain) VH: EVQLLESGGGLVQPGGSLRLSCAASGFTFRDYEMWWVRQAPGKGLERVSAINPQGTRTYYADSVKGRFTISRDNSKNTLYLQMNSLRAEDTAVYYCAKLPFYFSEWGQGTLVTVSS | 9 nM |
| BMS3h-56-223 (other, domain antibody (dAb): single human VH domain) VH: EVQLLESGGGLVQPGGSLRLSCAASGFTFRDYEMWWVRQAPGRGLERVSAINPPGMLTYYADSVKGRFTISRDNSKNTLYLQMNSLRAEDTAVYYCAKLPFTFDDWGQGTLVTVSS | 5 nM |
| BMS3h-56-224 (other, domain antibody (dAb): single human VH domain) VH: EVQLLESGGGLVQPGGSLRLSCAASGFTFRDYEMWWVRQAPGKGLERVSAINPWGQLTYYADSVKGRFTISRDNSKNTLYLQMNSLRAEDTAVYYCAKLPFTFEDWGQGTLVTVSS | 2.1 nM and 4.2 nM |
| BMS3h-56-207 (other, domain antibody (dAb): single human VH domain) VH: EVQLLESGGGLVQPGGSLRLSCAASGFTFRDYEMWWVRQAPGKGLERVSAINPQGTRTYYADSVKGRFTISRDNSKNTLYLQMNSLRAEDTAVYYCAKLPFPFSEWGQGTLVTVSS | 7.3 nM |
| BMS3h-56-225 (other, domain antibody (dAb): single human VH domain) VH: EVQLLESGGGLVQPGGSLRLSCAASGFTFRDYEMWWVRQAPGKGLERVSAINPWGGYTYYADSVKGRFTISRDNSKNTLYLQMNSLRAEDTAVYYCAKLPFTFDDWGQGTLVTVSS | 2.9 nM |
| BMS3h-56-220 (other, domain antibody (dAb): single human VH domain) VH: EVQLLESGGGLVQPGGSLRLSCAASGFTFRDYEMWWVRQAPGKGLERVSAINPYGGLTYYADSVKGRFTISRDNSKNTLYLQMNSLRAEDTAVYYCAKLPFTFDDWGQGTLVTVSS | 4.2 nM |
| BMS3h-56-204 (other, domain antibody (dAb): single human VH domain) VH: EVQLLESGGGLVQPGGSLRLSCAASGFTFRDYEMWWVRQAPGKGLERVSAINPQGTRTYYADSVKGRFTISRDNSKNTLYLQMNSLRAEDTAVYYCAKLPTYFKDWGQGTLVTVSS | 4.5 nM |

Target: human CD40 (human, UniProt P25942 21-277)
Sequence (P25942 21-277 limits assumed): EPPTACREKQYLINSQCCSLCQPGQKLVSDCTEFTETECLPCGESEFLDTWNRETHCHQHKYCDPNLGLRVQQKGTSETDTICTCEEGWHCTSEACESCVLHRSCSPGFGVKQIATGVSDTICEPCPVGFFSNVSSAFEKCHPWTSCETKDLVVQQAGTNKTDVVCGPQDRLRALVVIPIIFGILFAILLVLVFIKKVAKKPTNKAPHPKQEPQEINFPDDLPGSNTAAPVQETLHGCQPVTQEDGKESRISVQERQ
Test: cell-based or functional assay

| Binder | hIZCD40L-driven Human B Cell Proliferation EC50 [nM] | CHO-hCD40L-driven DC Activation IL-12 EC50 [nM] | CHO-hCD40L-driven Human B Cell Proliferation EC50 [nM] | T-B cell MLR EC50 [nM] |
| --- | --- | --- | --- | --- |
| BMS3h-88 (other) VH: EVQLLESGGGLVQPGGSLRLSCAASGFTFHETEMTWVRQAPGKGLEWVSAINRLGQDTYYADSVKGRFTISRDNSKNTLYLQMNSLRAEDTAVYYCAKGRIPGLVFDYWGQGTLVTVSS | > 7000 |  |  |  |
| BMS3h-208 (other) VH: EVQLLESGGGLVQPGGSLRLSCAASGFTFPESDMKWVRQAPGKGLEWVSSISPNGWDTYYADSVKGRFTISRDNSKNTLYLQMNSLRAEDTAVYYCAKPAQVLFDYWGQGTLVTVSS | > 7000 |  |  |  |
| BMS3h-112 (other) VH: EVQLLESGGGLVQPGGSLRLSCAASGFTFGESDMKWVRQAPGKGLEWVSSISPNGWDTYYADSVKGRFTISRDNSKNTLYLQMNSLRAEDTAVYYCAKSPSSRLKFDYWGQGTLVTVSS | > 7000 |  |  |  |
| BMS3h-102 (other) VH: EVQLLESGGGLVQPGGSLRLSCAASGFTFSEAEMNWVRQAPGKGLEWVSRITTDGDSTYYADSVKGRFTISRDNSKNTLYLQMNSLRAEDTAVYYCAKGRIPTLHFDYWGQGTLVTVSS | > 7000 |  |  |  |
| BMS3h-207 (other) VH: EVQLLESGGGLVQPGGSLRLSCAASGFTFSNQDMTWVRQAPGKGLEWVSSIDSSGQLTYYADSVKGRFTISRDNSKNTLYLQMNSLRAEDTAVYYCAKVKSLARFDYWGQGTLVTVSS | > 7000 |  |  |  |
| BMS3h-38-1 (other) VH: EVQLLGSGGGLVQPGGSLRLSCAASGFTFEEEEMIWVRQAPGKGLEWVSAISGSGGSTYYADSVKGRFTISRDNSKNTLYLQMNSLRAEDTAVYYCSKEPFRFDYWGQGTLVTVSS | 142 |  |  |  |
| BMS3h-38-219 (other) VH: EVQLLASGGGLVQPGGSLRLSCAASGFTFEEEEMIWVRQAPGKGLEWVSSISRSGGSTYYADSVKGRFTISRDNSKNTLYLQMNSLRAEDTAVYYCGKEPFRYDYWGQGTLVTVSS | 2 | 9 | 93 | 164 |
| BMS3h-38-205 (other) VH: EVQLLASGGGLVQPGGSLRLSCAASGFTFFAAEMIWVRQAPGKGLEWVSAISGSGGSTYYADSVKGRFTISRDNSKNTLYLQMNSLRAEDTAVYYCGKEPFRYDYWGQGTLVTVSS | 4 | 29 | 1100 |  |
| BMS3h-38-228 (other) VH: EVQLLASGGGLVQPGGSLRLSCAASGFTFEEEEMIWVRQAPGKGLEWVSAISRNGFSTYYADSVKGRFTISRDNSKNTLYLQMNSLRAEDTAVYYCGKEPFRYDYWGQGTLVTVSS | 0.7 |  |  |  |
| BMS3h-38-217 (other) VH: EVQLLASGGGLVQPGGSLRLSCAASGFTFEEEEMIWVRQAPGKGLEWVSAISRRGYSTYYADSVKGRFTISRDNSKNTLYLQMNSLRAEDTAVYYCGKEPFRYDYWGQGTLVTVSS | 0.8 | 1.7 | 34 | 74 |
| BMS3h-38-215 (other) VH: EVQLLASGGGLVQPGGSLRLSCAASGFTFEEEEMIWVRQAPGKGLEWVSAISGLGWSTYYADSVKGRFTISRDNSKNTLYLQMNSLRAEDTAVYYCGKEPFRYDYWGQGTLVTVSS | 1 | 6 | 65 | 163 |
| BMS3h-38-211 (other) VH: EVQLLASGGGLVQPGGSLRLSCAASGFTFEEEEMIWVRQAPGKGLEWVSAISRQGGSTYYADSVKGRFTISRDNSKNTLYLQMNSLRAEDTAVYYCGKEPFRYDYWGQGTLVTVSS | 2 | 18 | 82 | 200 |
| BMS3h-38-201 (other) VH: EVQLLASGGGLVQPGGSLRLSCAASGFTFEEEEMIWVRQAPGKGLEWVSAISGSGGSTYYADSVKGRFTISRDNSKNTLYLQMNSLRAEDTAVYYCGKEPFYYDYWGQGTLVTVSS | > 70 | > 800 | > 7000 |  |
| BMS3h-38-231 (other) VH: EVQLLASGGGLVQPGGSLRLSCAASGFPFEEEEMIWVRQAPGKGLEWVSAISRQGWSTYYADSVKGRFTISRDNSKNTLYLQMNSLRAEDTAVYYCGKEPFRYDYWGQGTLVTVSS | 0.66 |  |  |  |
| BMS3h-37-1 (other) VH: EVQLLESGGGLVQPGGSLRLSCAASGFTFEWYEMQWVRQAPGKGLEWVSAISGDGYRTYYADSVKGRFTISRDNSMNTLYLQMNSLRAEDTAVYYCAKELGYFDYRGRGTLVTVSS | 250 |  |  |  |
| BMS3h-37-202 (other) VH: EVQLLESGGGLVQPGGSLRLSCAASGFTFEWYEMQWVRRAPGKGLEWVSAISGDGWRTYYADSVKGRFTISRDNSKNTLYLQMNSLRAEDTAVYYCAKELGYFDYWGRGTLVTVSS | 0.6 | 10 |  | 83 |
| BMS3h-37-207 (other) VH: EVQLLESGGGLVQPGGSLRLSCAASGFTFEWYEMQWVRRAPGKGLEWVSAISGDGYRTYYADSVKGRFTISRDNSKNTLYLQMNSLRAEDTAVYYCAKELAFFDYWGRGTLVTVSS | 4 | 15.5 |  |  |
| BMS3h-37-11 (other) VH: EVQLLESGGGLVQPGGSLRLSCAASGFTFEWYEMQWVRKAPGKGLEWVSAISGDGYRTYYADSVKGRFTISRDNSKNTLYLQMNSLRAEDTAVYYCAKELGYFDYRGRGTLVTVSS | 8 |  |  |  |
| BMS3h-37-205 (other) VH: EVQLLESGGGLVQPGGSLRLSCAASGFTFEWYEMQWVRRAPGKGLEWVSAISGDGYRTYYADSVKGRFTISRDNSKNTLYLQMNSLRAEDTAVYYCAKELEYFDYWGRGTLVTVSS | 2 | 6.6 |  |  |
| BMS3h-37-206 (other) VH: EVQLLESGGGLVQPGGSLRLSCAASGFTFEWYEMQWVRRAPGKGLEWVSAISGDGYRTYYADSVKGRFTISRDNSKNTLYLQMNSLRAEDTAVYYCAKGLEYFDYWGRGTLVTVSS | 5 | 23 |  |  |
| BMS3h-37-212 (other) VH: EVQLLESGGGLVRPGGSLRLSCAASGFTFEWYEMQWVRRAPGKGLEWVSAISGDGYRTYYADSVKGRFTISRDNSKNTLYLQMNSLRAEDTAVYYCAKELEFFDYWGRGTLVTVSS | 1 |  |  |  |
| BMS3h-37-213 (other) VH: EVQLLESGGGLVQPGGSLRLSCAASGFTFEWYEMQWVRRAPGKGLEWVSAISGDGYRTYYADSVKGRFTISRDNSKNTLYLQMNSLRAEDTAVYYCAKELLFFDYRGRGTLVTVSS | 0.7 |  |  |  |
